The supplement of paper PMC7125110
± gives the standard error. Fewer inactive variants are shown than the library holds.

B1: glmS ribozyme (parent)
chain: AUAAAAGCGCCAGAACUACAGAAAUGUAGUUGACGAGGAGGAGGUUUAUCGAAUUUUCGGCGGAUGCCUCCAAA

Variants of: B1
Assay: self-cleavage kobs at 10000 uM GlcN6P; higher = faster cleavage; RNA array
Conditions: with glucosamine-6-phosphate
How it was run: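 kobs was derived by fitting per-tile medians to one- or two-exponential decays after normalising signals to baseline and to non-cleaving reference variants. Those signals came from barcoded ribozyme variants transcribed in situ by E. coli RNA polymerase on sequenced MiSeq chips, followed through a hybridised Cy3 probe at 37 °C and imaged over ~14 h. Glucosamine-6-phosphate (40 μM to 10 mM) in HEPES/KCl/Mg(OAc)2 buffer was flowed in. Weighted Michaelis–Menten fits across concentrations then gave kcat and KM.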

Row | Variant | self-cleavage kobs at 10000 uM GlcN6P
1 | AUAAAAGCGCCAGAACUACAGAAAUGUAGUAGACGAGGAGGAGGUUUAUCGAAUUUUCGGGGGAUGCCUCUAAA [U31A C61G C71U] | < 1e-05 s⁻¹
2 | AUAAAAGCGCCAGAACUACAGAAAUGUAGAUGAGGAGGAGGAUGUUUAUCGAAUUUUCGGUGUAUGCCUCCAAA [U30A C34G G43U C61U G63U] | < 1e-05 s⁻¹
3 | AUAAAAGCGCCAGAACUACAGACAUGUAGUUGACGAGGAGGAGGUUUAUCGAAUUUUCGGCGGAUGCCUCAAAA [A23C C71A] | 0.00399 ± 0.00084 s⁻¹
4 | AUAAAAGCGCCAGAAUUACAGAAAUGUAGUAGACGAGGAGGAGGAUUAUCGAAUUUUCGGCGGAUGCCUCCAAA [C16U U31A U45A] | 0.00606 ± 0.0026 s⁻¹
5 | AUAAAAGCGCCAGAAUUACAGAAAUGUAGUUGGCGCGGAGGAGGUUUAUCGAAUUUGGGGCGGAUGCCUCCAAA [C16U A33G A36C U57G C58G] | 7.07e-05 ± 2e-05 s⁻¹
6 | AUAAAAGCGCCAGAACUACAGAAAUGUAGAUGACGAGGCGGAGGUUUAUCGAAUUUUCGGCGGAUGCCUCCAAA [U30A A39C] | 0.00136 ± 0.00028 s⁻¹
7 | AUAAAAGCGCCAGAACUACAGAAAUGUACUUGACGAGGAGGAGGUUUAUGGAAUUUUCGGGGGAUGCCUCUAAA [G29C C50G C61G C71U] | 8.93e-05 ± 2.1e-05 s⁻¹
8 | AUAAAAGCGCCAGAACUACAGAAAUGUAGUCGACGAGGAGGAGGUUUCUCGAAUUUUCGGCGGAUGCCUCCAAA [U31C A48C] | 3.72e-05 ± 7.7e-06 s⁻¹
9 | AUAAAAGCGCCAGAACUACAGAAAUGUAGUUAACGAGGUGGAGGUUUAUCGAAUUUUCGGCGGAUGCUUCCAAA [G32A A39U C68U] | 0.000655 ± 0.00014 s⁻¹
10 | AUAAAAGCGCCAGAACUACAGAAAUGUAGUGGACGAGGAGGAGGUUUAUCGAAUGUUUGGCGGAUGCCUCCAAA [U31G U55G C58U] | 7.92e-05 ± 1.7e-05 s⁻¹
11 | AUAAAAGCGCCAGAACUACAGAAAUGUAUUUGACGAGGAGGAGGUUUAUCGAAUCUACGGCGGAUGCCUCCAAA [G29U U55C U57A] | 4.36e-05 ± 1.5e-05 s⁻¹
12 | AUAAAAGCGCCAGAACUACAGAAAUGUAGUUAACGAGGAUGAGGUUUAUCGAAUUUUCGGCGGAUGUCUCCAAA [G32A G40U C67U] | < 1e-05 s⁻¹
13 | AUAAAAGCGCCAGAACUACCGAAAUGUAGUUGACGAGGAGGAGUUUUAUCGAAUUUUCGGCGGAUGCCUCCAAA [A20C G44U] | 0.000286 ± 8.9e-05 s⁻¹
14 | AUAAAAGCGCCAGAACUACAGAAAUGUAAUUGACGAGGAGGAGGUUUAUCGGAUUUUCGGCGGAUGGCUCCAAA [G29A A52G C67G] | 5.89e-05 ± 1.1e-05 s⁻¹
15 | AUAAAAGCGCCAGAACUACAGAAAUGUAGGUGACGAGGUGGAGGUUUAUCGAAUUUUCGGCGGAUGCCUACAAA [U30G A39U C70A] | 7.17e-05 ± 1.8e-05 s⁻¹
16 | AUAAAAGCGCCAGAACUACAGAAAUGUAGUUAACGAGGAGGAGGGUUAGCGAAUUUUCGGCGGAUGCCUCGAAA [G32A U45G U49G C71G] | < 1e-05 s⁻¹
17 | AUAAAAGCGCCAGAACUACAGAAAUGUAGGUGACGAGGAGUAAGUUUCUCGAAUUUUCGGCGGAUGCCUCUAAA [U30G G41U G43A A48C C71U] | < 1e-05 s⁻¹
18 | AUAAAAGCGCCAGAAGUACAGAAAUGUAGUUGACGAGGAGGAGGUUUAUCGAAUGUUUGGCGGAUGCCUCCAAA [C16G U55G C58U] | 5.56e-05 ± 2.5e-05 s⁻¹
19 | AUAAAAGCGCCAGAACUACAGAAAUGUAGUAGACGAGGAGGAGGUUUAACGAAUUUUCGGCGGACGGCUCCAAA [U31A U49A U65C C67G] | < 1e-05 s⁻¹

Row | Variant | self-cleavage kobs at 10000 uM GlcN6P
20 | AUAAAAGCGCCAGAACUACAGAAAUGUACUUGACGGGGAGGAGGUUUAUCGAAUUUUCGCCGGAUGCCGCCAAA [G29C A36G G60C U69G] | < 1e-05 s⁻¹
21 | AUAAAAGCGCCAGAACUACAGAAAUGUAGAUGACGAGGAGGAGGUUGAUCGAGUUUUCGGCGGAUGCCUCCAAA [U30A U47G A53G] | 0.000616 ± 0.0001 s⁻¹
22 | AUAAAAGCGCCAGAACUACAGAAAUGUAGCUGACGAGGAGGAGGUUUAUCGAGUUUUCGGCGGAUACCUCCAAA [U30C A53G G66A] | 8.63e-05 ± 2.1e-05 s⁻¹
23 | AUAAAAGCGCCAGAAUUACAGAAAUGUAGUUGACGAGGAGGACGUUUAUCGAAUUUUCGGCGGCUGCCUCGAAA [C16U G43C A64C C71G] | < 1e-05 s⁻¹
24 | AUAAAAGCGCCAGAACUACAGAAAUGUGGUUGACGAGGAGGAGGUUUAUCGUGUUUUCGGCGGAUGCCUCCAAA [A28G A52U A53G] | 9e-05 ± 1.6e-05 s⁻¹
25 | AUAAAAGCGCCAGAACUACAGAAAUUUAGUUGACGAGGAGGAGUUUUAUCGAAUUUUCGGCGGAUGCCUCCAAA [G26U G44U] | 0.000189 ± 3.6e-05 s⁻¹
26 | AUAAAAGCGCCAGAACUACAGAAAUGUAGCUGACGAGGAGGAGGUUUAUCAAAUUUUCGGCGGAUGGCUCCAAA [U30C G51A C67G] | < 1e-05 s⁻¹
27 | AUAAAAGCGCCAGAACUACAGAAAUGUAUUUGACGAGGAGGAGGUUUAUCGAAAUUUCGGCGGAUGCUUCCAAA [G29U U54A C68U] | 0.000427 ± 0.00018 s⁻¹
28 | AUAAAAGCGCCAGAACUACAGAAAUGUAGCUGACGGGGAGGAGGUUUAUCGAAAUUUCGGCGGAUGCCUCCAAA [U30C A36G U54A] | < 1e-05 s⁻¹
29 | AUAAAAGCGCCAGAACUACAGAAAUGUAGAUGACGAGGAGGAGGCUUAUCGAAUUUUCGGCGGAUGCCUCCAAA [U30A U45C] | 0.000307 ± 8.9e-05 s⁻¹
30 | AUAAAAGCGCCAGAACUACAGAAAUGUAACUGACGAGGAGGAGGUUUAUCGAAUUUUCGACGGAUGCCUCCAAA [G29A U30C G60A] | < 1e-05 s⁻¹
31 | AUAAAAGCGCCAGAACUACAGAAAUGUAAUUGACGAGGAUGAGGUUUAUCGAAUUUUCGGCGGAUGCGUCCAAA [G29A G40U C68G] | < 1e-05 s⁻¹
32 | AUAAAAGCGCCAGAACUACAGAAAUGUAGUCGACGAGGACGAGGUUUAUCGAGUUUUCGGCGGAUGCCUCCAAA [U31C G40C A53G] | 0.000261 ± 9.7e-05 s⁻¹
33 | AUAAAAGCGCCAGAACUACAGAAAUGUAGGUGCCGAGGAGGAGGUUUCUCGAAUUUUCGGCGGAUGCCUCUAAA [U30G A33C A48C C71U] | < 1e-05 s⁻¹
34 | AUAAAAGCGCCAGAACUACAGAAAUGUAGUGGACGAGAAGGAGGUUUAUCGACUUUUCGGCGGACGCCUCCAAA [U31G G38A A53C U65C] | < 1e-05 s⁻¹
35 | AUAAAAGCGCCAGAACUACAGAAAUGUACUUGACGAGGAGGAGGUUUAUCGAAUUUUCGGCGGAUGCCCCUAAA [G29C U69C C71U] | 4.54e-05 ± 2.1e-05 s⁻¹
36 | AUAAAAGCGCCAGAACUACAGAAAUGUAGUCGACGAGGAGGCGGUUUAUCGAAUUUUCGGCGGGUGCCUCCAAA [U31C A42C A64G] | < 1e-05 s⁻¹
37 | AUAAAAGCGCCAGAACUACAGAAAUGUAUUUGACGAGGAGGAGGUGUAUCGAAUUUUCGGGGGAUACCUCCAAA [G29U U46G C61G G66A] | < 1e-05 s⁻¹
